The source of these data is paper PMC6883096.

Experiment [1] addresses DS241 (BaxA S31R) (Bacillus amyloliquefaciens).
The target in experiment [2] is catalytic domain of Thermomonospora fusca TF xylanase A (TfxA_CD) (Thermomonospora fusca TF).
Experiment [3] concerns the target DS153 (BaxA N29S) (Bacillus amyloliquefaciens).
Experiment [4] has as its target DS428 (BaxA I51V) (Bacillus amyloliquefaciens).
The target of experiment [5] is recombinant Bacillus amyloliquefaciens xylanase A (reBaxA) (Bacillus amyloliquefaciens).

B1: recombinant rice xylanase inhibitor (rePRIXI) (natural protein)
chain: AGKTGQMTVFWGRNKNEGTLKETCDTGLYTTVVISFYSVFGHGRYWGDLSGHDLRVIGADIKHCQSKNIFVFLSIGGAGKDYSLPTSKSAADVADNIWNAHMDGRRPGVFRPFGDAAVDGIDFFIDQGAPDHYDDLARNLYAYNKMYRARTPVRLTATVRCAFPDPRMKKALDTKLFERIHVRFYDDATCSYNHAGLAGVMAQWNKWTARYPGSHVYLGLAAANVPGKNDNVFIKQLYYDLLPNVQKAKNYGGIMLWDRFYDKQTGYGKTVKYWA
For the molecule B1, the inhibitory rate of xylanase activity after incubation of the xylanase with rePRIXI at 50°C for 40 min (residual activity on beechwood xylan) is 20.5% in experiment [1]; 11.2% in experiment [2]; 14.8% in experiment [3]; 11.3% in experiment [4]; 30.3% in experiment [5].
